The target in series [1] is α-syn (Homo sapiens, UniProt P37840). Kind of series: ThT aggregation kinetics of α-syn. To be noted: 20 μM α-syn, 5 μM ligand; α-syn alone half-time 44 h. It is filed as biochemical.
Series [2] has as its target αSOs-Alexa488 (Homo sapiens, UniProt P37840). Briefly: FIDA binding of αSOs to neuronal proteins in solution. The note with it: up to 150 μM ligand, in solution.
Series [3] concerns the target α-syn monomers, oligomers or fibrils (Homo sapiens, UniProt P37840). Kind of series: Dot-blot binding assay. To be noted: 0.05–0.4 μg immobilized protein, 33 μg mL^−1 α-syn monomer, oligomer or fibril.

B1: Ubiquitin carboxyl-terminal hydrolase isozyme L1 (UCH-L1) (protein)
chain: MQLKPMEINPEMLNKVLSRLGVAGQWRFVDVLGLEEESLGSVPAPACALLLLFPLTAQHENFRKKQIEELKGQEVSPKVYFMKQTIGNSCGTIGLIHAVANNQDKLGFEDGSVLKQFLSETEKMSPEDRAKCFEKNEAIQAAHDAVAQEGQCRVDDKVNFHFILFNNVDGHLYELDGRMPFPVNHGASSEDTLLKDAAKVCREFTEREQGEVRFSAVALCKAA
As to B1, the “Reduction of half-time of aggregation” value in series [1] turned out to be 3 fold. In addition, in series [2], the “Change in Rh of αSOs-Alexa488 on titration with ligand” value is reported as “little change in Rh”. In addition, in series [3], the “Binding preference for α-syn species in dot blot” value was “bound most strongly to fibrils”.

B2: NAD-dependent protein deacetylase sirtuin-2 (protein)
chain: MAEPDPSHPLETQAGKVQEAQDSDSDSEGGAAGGEADMDFLRNLFSQTLSLGSQKERLLDELTLEGVARYMQSERCRRVICLVGAGISTSAGIPDFRSPSTGLYDNLEKYHLPYPEAIFEISYFKKHPEPFFALAKELYPGQFKPTICHYFMRLLKDKGLLLRCYTQNIDTLERIAGLEQEDLVEAHGTFYTSHCVSASCRHEYPLSWMKEKIFSEVTPKCEDCQSLVKPDIVFFGESLPARFFSCMQSDFLKVDLLLVMGTSLQVQPFASLISKAPLSTPRLLINKEKAGQSDPFLGMIMGLGGGMDFDSKKAYRDVAWLGECDQGCLALAELLGWKKELEDLVRREHASIDAQSGAGVPNPSTSASPKKSPPPAKDEARTTEREKPQ
B2: the “Change in Rh of αSOs-Alexa488 on titration with ligand” value in series [2] is given as “little change in Rh”.

For the origin of these results see PMC10016340 (Chemical Science, 2023).
